Reference: patent US11572394B2, “Peptides for targeting LRP6-overexpressed cells” (PASTEUR INSTITUTE OF IRAN, priority 2020, dated 2023)

Experiments:
Assay type in all cases: cell-based, human
[1] = tested on: Wnt signaling pathway, HCT116 cell line; assay: Western blotting of LRP6 and β-catenin proteins with signal densitometry; conditions: HCT116, Western blot
Protocol: (§1) In this example, the effect of exemplary peptides on the expression of LRP6 and downstream genes of the Wnt signaling pathway, such as β-catenin, cyclin D1, and C-MYC, was evaluated at transcription level using real-time PCR and at translation level using Western blotting. The Gapdh gene was used as the reference gene. The expression fold change of more than 2 times (treated cell against untreated cell) was defined as increasing expression, and cases with a fold change of 0.5 to 2 were unchanged, and cases with expression fold change less than 0.5 were considered as a reduction in expression.
(§2) Also, the effect of exemplary peptides on the levels of LRP6 and β-catenin proteins in the β-catenin/Wnt signaling pathway was investigated by Western blotting. Also, each protein's relative expression was determined through signal densitometry of each Western blot band.

[2] = tested on: Wnt signaling pathway, SW480 cell line; assay: as above; conditions: SW480, Western blot
Protocol: as §1, §2

[3] = tested on: Wnt signaling pathway, HUVEC cell line; assay: as above; conditions: Western blot
Protocol: as §1
Also, the effect of exemplary peptides on the levels of LRP6 and β-catenin proteins in the β-catenin/Wnt signaling pathway was investigated by Western blotting. Also, each protein's relative expression was determined through signal densitometry of each Western blot band. FIG. 11A illustrates relative expression β-actin, β-catenin, and LRP6 in SW480, HCT116, and HUVEC cell lines, consistent with one or more exemplary embodiments of the present disclosure. Referring to FIG. 11A, the relative expressions of β-catenin and LRP6 in SW480 and HCT116 were higher than HUVEC as a normal cell.

[4] = tested on: HCT116; assay: Cell cycle analysis by flow cytometry (DNA content); conditions: HCT116, 24 hours
Protocol: (§3) In this example, the effect of exemplary peptides on the cell cycle was determined through flow cytometry and measurement of DNA content in cells. In this experiment, HCT116, SW480, and HUVEC cell lines were cultured in 24-well plates and treated with 1 mM of each exemplary peptide for 24 hours.
(§4) The cell proliferation index may be calculated by dividing the percentage of cells present in the S and G2 stages by the percentage of cells in the G1, S, and G2 stages. […] Also, the proliferation index in SW480 and HCT116 cell lines decreased after treatment with exemplary peptides (SEQ ID NOs: 1-4). On the other hand, the decrease in the proliferation index of HUVEC cells was smaller than that of SW480 and HCT116 cell lines.

[5] = tested on: HUVEC; assay: as above; conditions: 24 hours
Protocol: as §3, §4

[6] = tested on: SW480; assay: as above; conditions: SW480, 24 hours
Protocol: as §3, §4

B1: DKK1: Dickkopf-related protein 1, natural inhibitor of the Wnt signaling pathway, antagonist ligand of LRP6, negative control (protein)
chain: TLNSVLNSNAIKNLPPPLGGAAGHPGSAVSAAPGILYPGGNKYQTIDNYQPYPCAEDEECGTDEYCASPTRGGDAGVQICLACRKRRKRCMRHAMCCPGNYCKNGICVSSDQNHFRGEIEETITESFGNDHSTLDGYSRRTTLSSKMYHTKGQEGSVCLRSSDCASGLCCARHFWSKICKPVLKEGQVCTKHRRKGSHGLEIFQRCYCGEGLSCRIQKDHHQASNSSRLHTCQRH
B1 was tested, and the “level of LRP6 protein” value [1] was “did not alter”, the “level of LRP6 protein” value [2] was “did not alter” and the “level of LRP6 protein” value [3] was “did not alter”. For the same molecule, the “S and G2/M stage percentage” value [4] was “decreased”, the “percentage of cells in the G0/G1 stage” value [4] was “increased” and the “S and G2/M stage percentage” value [5] was “decreased”. For the same molecule, the “percentage of cells in the G0/G1 stage” value [5] was “increased”, the “S and G2/M stage percentage” value [6] was “decreased” and the “percentage of cells in the G0/G1 stage” value [6] was “increased”.
